Source: paper PMC2279226

How the values were obtained:
[1] = target: H3 (K9, 14, 18, 23) tetra-acetylated nucleosome (Xenopus laevis)
[2] = target: H3 (K9, 14, 18, 23) tetra-acetylated nucleosome (Xenopus laevis); remark: listed apart in the source

initial rate of nucleosome repositioning by RSC relative to the unmodified S28C control (competitive sliding assay, 54A18 DNA, 30 °C, 1 mM ATP) [1]: 16 fold
Km for nucleosomes of ATP hydrolysis by RSC (real-time MDCC-PBP ATPase assay, 0.3 nM RSC, 36W36 nucleosomes), against the unmodified control [2]: 3 fold lower
Substance: RSC complex (from UniProt Q02206 1-625)
